Measurements from US20220204610A1, “PROTEIN BINDERS FOR IRHOM2” (NEW YORK SOCIETY FOR THE RELIEF OF THE RUPTURED AND …, priority 2019, published 2022).

Tests used:
[1] = target: T1, human iRhom2 (Homo sapiens, UniProt Q6PJF5); experiment: Peptide binding ELISA, binding specificity (Example 10), iRhom2 peptides; details: antibody 3 μg/ml PBS; peptide coated at 10 μg/ml; normalized to IgM isotype control
T1 construct: the single peptide 3 resembling amino acids 431 to 459 of the extracellular juxtamembrane domain of human iRhom2; made in house; host or cells: chemical synthesis (Fmoc solid phase peptide synthesis), no expression host
T1 sequence (Q6PJF5 with tags, fused parts or gaps): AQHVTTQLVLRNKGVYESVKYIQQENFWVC
Method: Another series of peptide binding ELISA experiments was conducted to address the specificity of the purified antibody 4H8-E3 of the invention, i.e. to question whether this antibody specifically recognizes peptides, in particular peptide 3, resembling the extracellular juxtamembrane region adjacent to the TMD1 of human iRhom2, or whether the antibody 4H8-E3 of the invention also binds to peptides reflecting the homologous region of the closely related family member human iRhom1.
In brief, on day 1, Nunc black MaxiSorp® 96-well plates (Thermo Fisher Scientific, USA) were coated overnight with 100 μl per well of single biotinylated peptides 1 to 4, Mix A consisting of peptides 1 to 4, single biotinylated peptides 1b to 4b, and Mix D consisting of peptides 1b to 4b at 10 μg/m1 PBS each (thus, the final concentration of each peptide in both mixes was 2.5 μg/m1) at 4° C. On day 2, peptide solutions were removed and MaxiSorp® plates were blocked with 300 μl per well of Pierce protein-free (TBS) blocking buffer (Thermo Fisher Scientific, USA) at room temperature for 1.5 hours. […] Using an infinite M1000 PRO (Tecan Group, Switzerland) microplate reader, the fluorescence of each well was collected at an excitation wavelength of 435 nm and an emission wavelength of 555 nm.

[2] = target: T2, human iRhom2 (Homo sapiens, UniProt Q6PJF5); experiment: Peptide binding ELISA, target region determination (Example 9); details: antibody 3 μg/ml; peptide coated at 10 μg/ml; normalized to IgM isotype control
T2 construct: made in house; host or cells: chemical synthesis (Fmoc solid phase peptide synthesis), no expression host
T2 sequence (Q6PJF5 431-459): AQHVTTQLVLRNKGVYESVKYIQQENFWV
Method: (§1) Next, peptide binding ELISA analyses were performed to verify whether the purified antibody 4H8-E3 of the invention recognizes any of the peptides that were administered to those animals the hybridoma clone 4H8 was derived from, thereby shedding light on the target region being recognized by the antibody 4H8-E3 of the invention.
(§2) In brief, on day 1, Nunc black MaxiSorp® 96-well plates (Thermo Fisher Scientific, USA) were coated overnight with 100 μl per well of single biotinylated peptides 1 to 11 as well as mixes of peptides 1 to 4 (Mix A), 5 to 7 (Mix B), and 8 to 11 (Mix C) at 10 μg/ml TBS each (thus, the final concentration of each peptide in mixes 1 to 4 and 8 to 11 was 2.5 μg/ml versus 3.3 μg/ml in mix 5 to 7) at 4° C. On day 2, peptide solutions were removed and MaxiSorp® plates were blocked with 300 μl per well of Pierce protein-free (TBS) blocking buffer (Thermo Fisher Scientific, USA) at room temperature for 1.5 hours. The blocking buffer was then removed and plates were washed 4 times with 350 μl per well of TBS-T (Carl Roth, Germany) on a 96-head plate washer (Tecan Group, Switzerland). Afterwards, 100 μl per well of TBS as blank control, mouse anti-biotin antibody (clone BN-34, Sigma-Aldrich, USA) at 0.3 μg/ml TBS as coating control, the purified antibody 4H8-E3 of the invention at 3 μg/ml TBS, and mouse IgM antibody (clone MOPC 104E, Sigma-Aldrich, USA) as isotype control to the purified antibody 4H8-E3 of the invention at 3 μg/ml TBS were added to wells pre-coated with single peptides 1 to 11 or respective mixes and incubated at room temperature for 4 hours. Subsequently, the plates were washed 4 times with 350 μl per well of TBS-T (Carl Roth, Germany) on a 96-head plate washer (Tecan Group, Switzerland) again and, protected from direct light, were incubated with 100 μl per well of AP-conjugated goat anti mouse IgG/IgG/IgM F(ab′)2 fragment (Sigma-Aldrich, USA) diluted 1:2,000 in TBS for 1 hour at room temperature. Following another round of 4 washing steps with 350 μl per well of TBS-T (Carl Roth, Germany) on a 96-head plate washer (Tecan Group, Switzerland) and careful removal of all buffer traces after the fourth cycle, 100 μl of AttoPhos substrate solution (Promega, USA) were added for incubation in the dark and at room temperature for 1 hour. Using an infinite M1000 PRO (Tecan Group, Switzerland) microplate reader, the fluorescence of each well was collected at an excitation wavelength of 435 nm and an emission wavelength of 555 nm.

[3] = system: human iRhom2; experiment: as above; details: antibody 3 μg/ml, normalized to IgM isotype control
Method: as §1, §2

[4] = peptides coated individually or as mix

B1: 4H8-E3: Mouse IgM monoclonal antibody against the human iRhom2 juxtamembrane domain adjacent to TMD1; HC VD SEQ ID NO 33, LC VD SEQ ID NO 40 (antibody, V domains shown)
VH: EVQLQQSGPELVKPGASVKISCKASGYTFTDYYMNWVKQSHGKSLEWIGDINPNNGGTSYNQKFKGKATLTVDKSSNTAYMEFRSLTSEDSAVYYCARRGYYGVDYWGQGTTLTVSS
VL: NIVMTQSPKSMSMSVGERVTLNCKASENVGTYVSWYQQKPEQSPKLLIFGASNRYTGVPDRFIGSGFATDFTLTISSVQAEDLADYHCGQSYSYPYTFGGGTKLEIK
modifications: IgM constant regions; antibody sequence
binding to single peptide 3 (amino acids 431 to 459 of human iRhom2) [1]: Binding | binding to single peptide 3 (amino acids 431 to 459 of human iRhom2 juxtamembrane domain) [2]: strong binding | binding to Mix A consisting of peptides 1, 2, 3 and 4 ([3]; biotinylated peptides coated at 10 μg/ml): strong binding | binding to peptides 5, 6 and 7 (large extracellular loop) [3, 4]: no binding | binding to peptides 8, 9, 10 and 11 (C-terminal tail of human iRhom2) [3, 4]: no binding
